Key:
[1] = target: ED-B fibronectin antigen protein (recombinant), bound to CNBr activated sepharose 4B (UniProt P02751); assay: ED-B sepharose column, % of total radioactivity bound; Study A; trolox 5 mg/mL; day 0
[2] = target: ED-B fibronectin antigen protein (recombinant), bound to CNBr activated sepharose 4B (UniProt P02751); assay: ED-B sepharose column, % of total radioactivity bound; Study A; trolox 5 mg/mL; day 7
[3] = target: ED-B fibronectin antigen protein (recombinant), bound to CNBr activated sepharose 4B (UniProt P02751); assay: ED-B sepharose column, % of total radioactivity bound; Study A; maltose 5 mg/mL; day 0
[4] = target: ED-B fibronectin antigen protein (recombinant), bound to CNBr activated sepharose 4B (UniProt P02751); assay: ED-B sepharose column, % of total radioactivity bound; Study A; maltose 5 mg/mL; day 3
[5] = target: ED-B fibronectin antigen protein (recombinant), bound to CNBr activated sepharose 4B (UniProt P02751); assay: ED-B sepharose column, % of total radioactivity bound; Study A; maltose 10 mg/mL; day 0
[6] = target: ED-B fibronectin antigen protein (recombinant), bound to CNBr activated sepharose 4B (UniProt P02751); assay: ED-B sepharose column, % of total radioactivity bound; Study A; maltose 25 mg/mL; day 7
[7] = target: ED-B fibronectin antigen protein (recombinant), bound to CNBr activated sepharose 4B (UniProt P02751); assay: ED-B sepharose column, % of total radioactivity bound; Study A; maltose 50 mg/mL; day 3
[8] = target: ED-B fibronectin antigen protein (recombinant), bound to CNBr activated sepharose 4B (UniProt P02751); assay: ED-B sepharose column, % of total radioactivity bound; Study A; inositol 5 mg/mL; day 1
[9] = target: ED-B fibronectin antigen protein (recombinant), bound to CNBr activated sepharose 4B (UniProt P02751); assay: ED-B sepharose column, % of total radioactivity bound; Study A; inositol 5 mg/mL; day 7
[10] = target: ED-B fibronectin antigen protein (recombinant), bound to CNBr activated sepharose 4B (UniProt P02751); assay: ED-B sepharose column, % of total radioactivity bound; Study A; inositol 25 mg/mL; day 1
[11] = target: ED-B fibronectin antigen protein (recombinant), bound to CNBr activated sepharose 4B (UniProt P02751); assay: ED-B sepharose column, % of total radioactivity bound; Study A; inositol 25 mg/mL; day 5
[12] = target: ED-B fibronectin antigen protein (recombinant), bound to CNBr activated sepharose 4B (UniProt P02751); assay: ED-B sepharose column, % of total radioactivity bound; Study A; methionine 5 mg/mL; day 5
[13] = target: ED-B fibronectin antigen protein (recombinant), bound to CNBr activated sepharose 4B (UniProt P02751); assay: ED-B sepharose column, % of total radioactivity bound; Study A; methionine 5 mg/mL; day 7
[14] = target: ED-B fibronectin antigen protein (recombinant), bound to CNBr activated sepharose 4B (UniProt P02751); assay: ED-B sepharose column, % of total radioactivity bound; Study B3; inositol 10 mg/mL; day 0
[15] = target: ED-B fibronectin antigen protein (recombinant), bound to CNBr activated sepharose 4B (UniProt P02751); assay: ED-B sepharose column, % of total radioactivity bound; Study B3; inositol 10 mg/mL; day 3
[16] = target: ED-B fibronectin antigen protein (recombinant), bound to CNBr activated sepharose 4B (UniProt P02751); assay: ED-B sepharose column, % of total radioactivity bound; Study A; methionine 10 mg/mL; day 3
[17] = target: ED-B fibronectin antigen protein (recombinant), bound to CNBr activated sepharose 4B (UniProt P02751); assay: ED-B sepharose column, % of total radioactivity bound; Study A; methionine 10 mg/mL; day 7
[18] = target: ED-B fibronectin antigen protein (recombinant), bound to CNBr activated sepharose 4B (UniProt P02751); assay: ED-B sepharose column, % of total radioactivity bound; Study A; methionine 25 mg/mL; day 0
[19] = target: ED-B fibronectin antigen protein (recombinant), bound to CNBr activated sepharose 4B (UniProt P02751); assay: ED-B sepharose column, % of total radioactivity bound; Study A; methionine 25 mg/mL; day 1
[20] = target: ED-B fibronectin antigen protein (recombinant), bound to CNBr activated sepharose 4B (UniProt P02751); assay: ED-B sepharose column, % of total radioactivity bound; Study A; methionine 25 mg/mL; day 5
[21] = target: ED-B fibronectin antigen protein (recombinant), bound to CNBr activated sepharose 4B (UniProt P02751); assay: ED-B sepharose column, % of total radioactivity bound; Study B3; ascorbic acid 25 mg/mL; day 0
[22] = target: ED-B fibronectin antigen protein (recombinant), bound to CNBr activated sepharose 4B (UniProt P02751); assay: ED-B sepharose column, % of total radioactivity bound; Study A; sodium thiosulfate 5 mg/mL; day 3
[23] = target: ED-B fibronectin antigen protein (recombinant), bound to CNBr activated sepharose 4B (UniProt P02751); assay: ED-B sepharose column, % of total radioactivity bound; Study A; sodium thiosulfate 25 mg/mL; day 0
[24] = target: ED-B fibronectin antigen protein (recombinant), bound to CNBr activated sepharose 4B (UniProt P02751); assay: ED-B sepharose column, % of total radioactivity bound; Study A; sodium thiosulfate 25 mg/mL; day 1
[25] = target: ED-B fibronectin antigen protein (recombinant), bound to CNBr activated sepharose 4B (UniProt P02751); assay: ED-B sepharose column, % of total radioactivity bound; Study A; sodium thiosulfate 25 mg/mL; day 5
[26] = target: ED-B fibronectin antigen protein (recombinant), bound to CNBr activated sepharose 4B (UniProt P02751); assay: ED-B sepharose column, % of total radioactivity bound; Study A; sodium thiosulfate 50 mg/mL; day 1
[27] = target: ED-B fibronectin antigen protein (recombinant), bound to CNBr activated sepharose 4B (UniProt P02751); assay: ED-B sepharose column, % of total radioactivity bound; Study A; no-excipient control (saline); day 7
[28] = target: ED-B fibronectin antigen protein (recombinant), bound to CNBr activated sepharose 4B (UniProt P02751); assay: ED-B sepharose column, % of total radioactivity bound; Study B3; human serum albumin 10 mg/mL; day 2

Sequence of UniProt P02751 (P02751 1266-1356 limits assumed): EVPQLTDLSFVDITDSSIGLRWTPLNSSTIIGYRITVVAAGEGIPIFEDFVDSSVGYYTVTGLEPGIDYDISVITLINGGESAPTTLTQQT
Sequence of 131I L19-SIP (radioiodinated L19 SIP homodimer) (chain): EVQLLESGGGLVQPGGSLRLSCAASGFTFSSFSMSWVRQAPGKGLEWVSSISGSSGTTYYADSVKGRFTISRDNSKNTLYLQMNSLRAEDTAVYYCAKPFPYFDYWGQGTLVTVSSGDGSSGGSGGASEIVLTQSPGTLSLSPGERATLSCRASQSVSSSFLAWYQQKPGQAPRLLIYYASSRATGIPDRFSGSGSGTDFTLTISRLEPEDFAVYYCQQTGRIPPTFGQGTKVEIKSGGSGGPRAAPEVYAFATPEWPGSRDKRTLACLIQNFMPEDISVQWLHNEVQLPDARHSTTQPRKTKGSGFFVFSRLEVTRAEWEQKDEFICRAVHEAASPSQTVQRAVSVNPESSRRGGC
Sequence of 131I L19-SIP (radioiodinated L19 SIP homodimer) (chain): as above

An Immunoreactivity (%) [1] of 94.6%, an Immunoreactivity (%) [2] of 52.9% and an Immunoreactivity (%) [3] of 89.1% were found for “131I L19-SIP (radioiodinated L19 SIP homodimer)” in this work. It also gave an Immunoreactivity (%) [4] of 66.3%, an Immunoreactivity (%) [5] of 92.8% and an Immunoreactivity (%) [6] of 53.6%. It also gave an Immunoreactivity (%) [7] of 66.2%, an Immunoreactivity (%) [8] of 87.1% and an Immunoreactivity (%) [9] of 56.2%. For the same substance, the Immunoreactivity (%) [10] was 88.7%, the Immunoreactivity (%) [11] was 59.9% and the Immunoreactivity (%) [12] was 62.6%. For the same substance, the Immunoreactivity (%) [13] was 61%, the Immunoreactivity (IR) (%) [14] was 59.5% and the Immunoreactivity (IR) (%) [15] was 74.8%. It also gave an Immunoreactivity (%) [16] of 75.7%, an Immunoreactivity (%) [17] of 54.8% and an Immunoreactivity (%) [18] of 97.2%. It also gave an Immunoreactivity (%) [19] of 89.6%, an Immunoreactivity (%) [20] of 48.6% and an Immunoreactivity (IR) (%) [21] of 74.1%. The Immunoreactivity (%) [22] was 83.5%, the Immunoreactivity (%) [23] was 96.4% and the Immunoreactivity (%) [24] was 95%. For the same substance, the Immunoreactivity (%) [25] was 87.9%, the Immunoreactivity (%) [26] was 96.9% and the Immunoreactivity (%) [27] was 43.7%. It also gave an Immunoreactivity (IR) (%) [28] of 59.9%.

— WO2011147762A2
